Reference: patent US20260167710A1 (GlaxoSmithKline, published 2026)

Legend:
human IL-33 [1] = target: T1, human IL-33 (human, Biotinylated in Example 2; the site is not stated.); assay: cell-based or functional assay
T1 chain: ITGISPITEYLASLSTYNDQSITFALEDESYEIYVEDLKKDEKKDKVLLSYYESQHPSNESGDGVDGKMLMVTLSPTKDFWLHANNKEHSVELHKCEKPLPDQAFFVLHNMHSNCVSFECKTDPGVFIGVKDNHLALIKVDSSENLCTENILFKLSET

human IL-33 [2] = target: T1, human IL-33; assay: cell-based or functional assay
cFcgRIIb = target: T2, cFcgRIIb (cynomolgus monkey); assay: SPR (ProteOn XPR36), anti-poly-histidine IgG surface, antibody as analyte, equilibrium fit, 25 C
T2 construct: extracellular domain

cFcgRIIIa = target: T3, cFcgRIIIa (cynomolgus monkey); assay: as above
T3 construct: extracellular domain

cFcgRIIa = target: T4, cFcgRIIa (cynomolgus monkey); assay: as above
T4 construct: extracellular domain; also called recombinant soluble cynomolgus monkey Fc gamma receptor IIa

human IL-33 [3] = target: T1, human IL-33; assay: cell-based or functional assay
human IL-33 [4] = target: T1, human IL-33; assay: cell-based or functional assay

T3 sequence (Q8SPW2 17-208): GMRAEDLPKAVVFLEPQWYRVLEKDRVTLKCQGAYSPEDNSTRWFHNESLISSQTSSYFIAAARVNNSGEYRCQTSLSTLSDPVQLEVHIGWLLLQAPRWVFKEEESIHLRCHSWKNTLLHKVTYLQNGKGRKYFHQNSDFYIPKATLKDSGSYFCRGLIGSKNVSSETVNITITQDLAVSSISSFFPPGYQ

B1: 22A06-458 (antibody, human IgG1, kappa)
heavy: QVQLVQSGAEVKKPGASVKVSCKASGYTFISYGMHWVRQAPGQGLEWMGEINPHGGSTSYAQKFKGRVTMTRDTSTSTVYMELSSLRSEDTAVYYCARPSAAYSHYLGIDLWGRGTLVTVSSASTKGPSVFPLAPSSKSTSGGTAALGCLVKDYFPEPVTVSWNSGALTSGVHTFPAVLQSSGLYSLSSVVTVPSSSLGTQTYICNVNHKPSNTKVDKKVEPKSCDKTHTCPPCPAPELLGGPSVFLFPPKPKDTLYITREPEVTCVVVDVSHEDPEVKFNWYVDGVEVHNAKTKPREEQYNSTYRVVSVLTVLHQDWLNGKEYKCKVSNKALPAPIEKTISKAKGQPREPQVYTLPPSRDELTKNQVSLTCLVKGFYPSDIAVEWESNGQPENNYKTTPPVLDSDGSFFLYSKLTVDKSRWQQGNVFSCSVMHEALHNHYTQKSLSLSPGK
light: DIQMTQSPSSVSASVGDRVTITCRASQGISSWLAWYQQKPGKAPKLLIYAASRLQSGVPSRFSGSGSGTDFTLTISSLQPEDFATYYCQQANVFPLTFGGGTKVEIKRTVAAPSVFIFPPSDEQLKSGTASVVCLLNNFYPREAKVQWKVDNALQSGNSQESVTEQDSKDSTYSLSSTLTLSKADYEKHKVYACEVTHQGLSSPVTKSFNRGEC
- IC50, inhibition of 30 ng/mL IL-33/IL-12 induced IFN-γ secretion from whole blood, pre-complexed, Mean (human IL-33 [1]): 3.24 nM
- IC50, inhibition of 30 ng/mL IL-33/IL-12 induced IFN-γ secretion from whole blood, pre-complexed, donor #91232 (human IL-33 [1]): 1.47 nM
- IC50, inhibition of 30 ng/mL IL-33/IL-12 induced IFN-γ secretion from whole blood, pre-complexed, donor #91845 (human IL-33 [1]): 3.88 nM
- IC50, inhibition of 30 ng/mL IL-33/IL-12 induced IFN-γ secretion from whole blood, pre-complexed, donor #92023 (human IL-33 [1]): 2.48 nM
- IC50, inhibition of 30 ng/mL IL-33/IL-12 induced IFN-γ secretion from whole blood, pre-complexed, donor #92187 (human IL-33 [1]): 4.92 nM
- IC50, inhibition of 30 ng/mL IL-33/IL-12 induced IFN-γ secretion from whole blood, pre-complexed, donor #92257 (human IL-33 [1]): 1.75 nM
- IC50, inhibition of 30 ng/mL IL-33/IL-12 induced IFN-γ secretion from whole blood, pre-complexed, donor #92258 (human IL-33 [1]): 4.93 nM
- pIC50, inhibition of 30 ng/mL IL-33/IL-12 induced IFN-γ secretion from whole blood, pre-complexed, Mean (human IL-33 [1]): 8.53
- pIC50, inhibition of 30 ng/mL IL-33/IL-12 induced IFN-γ secretion from whole blood, pre-complexed, donor #91232 (human IL-33 [1]): 8.83
- pIC50, inhibition of 30 ng/mL IL-33/IL-12 induced IFN-γ secretion from whole blood, pre-complexed, donor #91845 (human IL-33 [1]): 8.41
- pIC50, inhibition of 30 ng/mL IL-33/IL-12 induced IFN-γ secretion from whole blood, pre-complexed, donor #92023 (human IL-33 [1]): 8.6
- pIC50, inhibition of 30 ng/mL IL-33/IL-12 induced IFN-γ secretion from whole blood, pre-complexed, donor #92187 (human IL-33 [1]): 8.3
- pIC50, inhibition of 30 ng/mL IL-33/IL-12 induced IFN-γ secretion from whole blood, pre-complexed, donor #92257 (human IL-33 [1]): 8.75
- pIC50, inhibition of 30 ng/mL IL-33/IL-12 induced IFN-γ secretion from whole blood, pre-complexed, donor #92258 (human IL-33 [1]): 8.3
- IC50, inhibition of 10 ng/mL IL-33/IL-12 induced IFN-γ secretion from whole blood, pre-complexed, Mean (human IL-33 [2]): 1.95 nM
- IC50, inhibition of 10 ng/mL IL-33/IL-12 induced IFN-γ secretion from whole blood, pre-complexed, donor #91232 (human IL-33 [2]): 0.63 nM
- IC50, inhibition of 10 ng/mL IL-33/IL-12 induced IFN-γ secretion from whole blood, pre-complexed, donor #91845 (human IL-33 [2]): 2.72 nM
- IC50, inhibition of 10 ng/mL IL-33/IL-12 induced IFN-γ secretion from whole blood, pre-complexed, donor #92023 (human IL-33 [2]): 1.88 nM
- IC50, inhibition of 10 ng/mL IL-33/IL-12 induced IFN-γ secretion from whole blood, pre-complexed, donor #92257 (human IL-33 [2]): 0.81 nM
- IC50, inhibition of 10 ng/mL IL-33/IL-12 induced IFN-γ secretion from whole blood, pre-complexed, donor #92258 (human IL-33 [2]): 3.72 nM
- pIC50, inhibition of 10 ng/mL IL-33/IL-12 induced IFN-γ secretion from whole blood, pre-complexed, Mean (human IL-33 [2]): 8.8
- pIC50, inhibition of 10 ng/mL IL-33/IL-12 induced IFN-γ secretion from whole blood, pre-complexed, donor #91232 (human IL-33 [2]): 9.19
- pIC50, inhibition of 10 ng/mL IL-33/IL-12 induced IFN-γ secretion from whole blood, pre-complexed, donor #91845 (human IL-33 [2]): 8.56
- pIC50, inhibition of 10 ng/mL IL-33/IL-12 induced IFN-γ secretion from whole blood, pre-complexed, donor #92023 (human IL-33 [2]): 8.72
- pIC50, inhibition of 10 ng/mL IL-33/IL-12 induced IFN-γ secretion from whole blood, pre-complexed, donor #92257 (human IL-33 [2]): 9.08
- pIC50, inhibition of 10 ng/mL IL-33/IL-12 induced IFN-γ secretion from whole blood, pre-complexed, donor #92258 (human IL-33 [2]): 8.42
- Kd (cFcgRIIb): 1100 nM
- Kd (cFcgRIIIa): 119 nM
- Kd (cFcgRIIa): 2110 nM
- IC50, inhibition of 10 ng/mL IL-33 induced IFN-γ secretion from whole blood, non-pre-complexed, Mean (human IL-33 [3]): 0.37 nM
- IC50, inhibition of 10 ng/mL IL-33 induced IFN-γ secretion from whole blood, non-pre-complexed, donor #32871 (human IL-33 [3]): 0.21 nM
- IC50, inhibition of 10 ng/mL IL-33 induced IFN-γ secretion from whole blood, non-pre-complexed, donor #90237 (human IL-33 [3]): 0.73 nM
- IC50, inhibition of 10 ng/mL IL-33 induced IFN-γ secretion from whole blood, non-pre-complexed, donor #91680 (human IL-33 [3]): 0.43 nM
- IC50, inhibition of 10 ng/mL IL-33 induced IFN-γ secretion from whole blood, non-pre-complexed, donor #91955 (human IL-33 [3]): 0.08 nM
- IC50, inhibition of 10 ng/mL IL-33 induced IFN-γ secretion from whole blood, non-pre-complexed, donor #91986 (human IL-33 [3]): 0.36 nM
- IC50, inhibition of 10 ng/mL IL-33 induced IFN-γ secretion from whole blood, non-pre-complexed, donor #92251 (human IL-33 [3]): 0.42 nM
- pIC50, inhibition of 10 ng/mL IL-33 induced IFN-γ secretion from whole blood, non-pre-complexed, Mean (human IL-33 [3]): 9.51
- pIC50, inhibition of 10 ng/mL IL-33 induced IFN-γ secretion from whole blood, non-pre-complexed, donor #32871 (human IL-33 [3]): 9.67
- pIC50, inhibition of 10 ng/mL IL-33 induced IFN-γ secretion from whole blood, non-pre-complexed, donor #90237 (human IL-33 [3]): 9.13
- pIC50, inhibition of 10 ng/mL IL-33 induced IFN-γ secretion from whole blood, non-pre-complexed, donor #91680 (human IL-33 [3]): 9.37
- pIC50, inhibition of 10 ng/mL IL-33 induced IFN-γ secretion from whole blood, non-pre-complexed, donor #91955 (human IL-33 [3]): 10.1
- pIC50, inhibition of 10 ng/mL IL-33 induced IFN-γ secretion from whole blood, non-pre-complexed, donor #91986 (human IL-33 [3]): 9.44
- pIC50, inhibition of 10 ng/mL IL-33 induced IFN-γ secretion from whole blood, non-pre-complexed, donor #92251 (human IL-33 [3]): 9.37
- IC50, inhibition of IL-33 (5.0 nM) induced β-hexosaminidase release from basophils, pre-complexed, Mean (human IL-33 [4]): 2.03 nM
- IC50, inhibition of IL-33 (5.0 nM) induced β-hexosaminidase release from basophils, pre-complexed, donor #33235 (human IL-33 [4]): 1.39 nM
- IC50, inhibition of IL-33 (5.0 nM) induced β-hexosaminidase release from basophils, pre-complexed, donor #90290 (human IL-33 [4]): 4.53 nM
- IC50, inhibition of IL-33 (5.0 nM) induced β-hexosaminidase release from basophils, pre-complexed, donor #90356 (human IL-33 [4]): 1.23 nM
- IC50, inhibition of IL-33 (5.0 nM) induced β-hexosaminidase release from basophils, pre-complexed, donor #90541 (human IL-33 [4]): 0.97 nM
- pIC50, inhibition of IL-33 (5.0 nM) induced β-hexosaminidase release from basophils, pre-complexed, Mean (human IL-33 [4]): 8.78
- pIC50, inhibition of IL-33 (5.0 nM) induced β-hexosaminidase release from basophils, pre-complexed, donor #33235 (human IL-33 [4]): 8.86
- pIC50, inhibition of IL-33 (5.0 nM) induced β-hexosaminidase release from basophils, pre-complexed, donor #90290 (human IL-33 [4]): 8.34
- pIC50, inhibition of IL-33 (5.0 nM) induced β-hexosaminidase release from basophils, pre-complexed, donor #90356 (human IL-33 [4]): 8.91
- pIC50, inhibition of IL-33 (5.0 nM) induced β-hexosaminidase release from basophils, pre-complexed, donor #90541 (human IL-33 [4]): 9.01
